Measurements reported in PMC9646986, “A sandwich-like configuration with a signal amplification strategy using a methylene blue/aptamer complex on a heterojunction 2D MoSe2/2D WSe2 electrode: Toward a portable and sensitive electrochemica”.

Target: T1, alpha-fetoprotein (AFP) (UniProt P02771 19-609)
T1 sequence: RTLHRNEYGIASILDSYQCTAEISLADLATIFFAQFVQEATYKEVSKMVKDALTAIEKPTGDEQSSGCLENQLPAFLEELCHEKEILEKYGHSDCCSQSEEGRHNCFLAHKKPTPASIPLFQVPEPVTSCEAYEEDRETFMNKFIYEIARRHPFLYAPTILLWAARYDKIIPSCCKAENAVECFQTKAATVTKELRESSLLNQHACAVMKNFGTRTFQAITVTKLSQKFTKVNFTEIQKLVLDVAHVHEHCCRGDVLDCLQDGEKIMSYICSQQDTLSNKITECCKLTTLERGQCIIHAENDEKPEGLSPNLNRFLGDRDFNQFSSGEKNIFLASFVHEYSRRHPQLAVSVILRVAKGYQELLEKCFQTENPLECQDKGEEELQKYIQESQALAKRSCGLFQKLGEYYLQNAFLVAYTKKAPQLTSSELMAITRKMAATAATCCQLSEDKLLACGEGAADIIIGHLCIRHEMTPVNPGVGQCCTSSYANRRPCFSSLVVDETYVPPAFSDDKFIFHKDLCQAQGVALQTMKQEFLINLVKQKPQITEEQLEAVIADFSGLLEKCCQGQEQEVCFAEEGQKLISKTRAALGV
Test: electrochemical sandwich assay (DPV, methylene blue read-out); AFP 50 ng/ml captured by anti-AFP; aptamer 10 uM; MB 10 mM; DPV in 0.010 M PBS pH 7.4 (performance section prints 0.0010 M); aptamer 10 uM, 40 min; temperature not given
Settings: protein: commercial

GTGACGCTCCTAACGCTGACTCAGGTGCAGTTCTCGACTCGGTCTT (ssDNA) [AFP aptamer]: binds.
